Source: US20150307603A1 (MODIQUEST B V, published 2015)
Non-standard residues stand in square brackets, D forms with d. No end group written: not given here. Cit = NC(=O)NCCC[C@H](N)C(=O)O

What was measured:
[1] = target: T1, human recombinant histone 2B (human); test: ELISA, Ab 0.08 ug/well
T1 construct: Non-deiminated; also called H2B
Description: (§1) The resulting OD (y-axis) is a measure for antibody binding. H1-recombinant histone 1; H1/p2-huPAD2 recombinant histone 1; H1/p4-huPAD4 recombinant histone 1, and so forth (x-axis).

[2] = target: T2, huPAD2-deiminated human recombinant histone 2B (human); test: ELISA, Ab 0.08 ug/well
T2 construct: also called H2B/p2
Description: as §1

[3] = target: T3, huPAD4-deiminated human recombinant histone 3 (human); test: ELISA, Ab 0.08 ug/well
T3 construct: also called H3/p4
Description: as §1

[4] = target: T4, CFC-1; test: ELISA, Ab 0.08 ug/well
T4 construct: Positive control for anti-citrulline reactivity; also called cfc1 XG; Cfc1-peptide
Description: (§2) Biotin and citrulline-containing peptides derived from histone 2A were immobilized on NEUTRAVIDIN®-coated 96-well ELISA plates (0.3 μg/well). CFC-1 and CFC-0 were coated at the same concentration and served as positive and negative controls, respectively, for specific anti-citrulline reactivity and as coating controls. Non-coated wells were used to test for aspecific binding of the antibodies. […] Detection of bound anti-citrulline antibodies was performed by incubating the wells with rabbit anti-human HRP (1:2000) for 1 hour at RT followed by incubation with TMB substrate. The resulting OD (y-axis) is a measure for antibody binding.

[5] = target: T5, peptide no. 1 (human histone 2A) (human, also: biotin-labelled); test: ELISA, Ab 0.08 ug/well
T5 construct: also called peptide 1; AAASGXGKQGGK
T5 peptide: AAASG[Cit]GKQGGK
Description: as §2

[6] = target: T6, peptide no. 2 (human histone 2A) (human, also: biotin-labelled); test: ELISA, Ab 0.08 ug/well
T6 construct: also called peptide 2
T6 peptide: AKAKS[Cit]SSRAGL
Description: as §2

[7] = target: T7, peptide no. 3 (human histone 2A) (human, also: biotin-labelled); test: ELISA, Ab 0.08 ug/well
T7 construct: also called peptide 3
T7 peptide: KSRSS[Cit]AGLQFP
Description: as §2

[8] = target: T8, peptide no. 4 (human histone 2A) (human, also: biotin-labelled); test: ELISA, Ab 0.08 ug/well
T8 construct: also called peptide 4
T8 peptide: QFPVG[Cit]VHRLLR
Description: as §2

[9] = target: T9, peptide no. 5 (human histone 2A) (human, also: biotin-labelled); test: ELISA, Ab 0.08 ug/well
T9 construct: also called peptide 5
T9 peptide: VGRVH[Cit]LLRKGN
Description: as §2

[10] = target: T10, peptide no. 6 (human histone 2A) (human, also: biotin-labelled); test: ELISA, Ab 0.08 ug/well
T10 construct: also called peptide 6
T10 peptide: VHRLL[Cit]KGNYSE
Description: as §2

[11] = target: T11, peptide no. 8 (human histone 2A) (human, also: biotin-labelled); test: ELISA, Ab 0.08 ug/well
T11 construct: also called peptide 8
T11 peptide: AGNAA[Cit]DNKKTR
Description: as §2

[12] = target: T12, peptide no. 9 (human histone 2A) (human, also: biotin-labelled); test: ELISA, Ab 0.08 ug/well
T12 construct: also called peptide 9
T12 peptide: DNKKT[Cit]IIPRHL
Description: as §2

[13] = target: T13, peptide no. 11 (human histone 2A) (human, also: biotin-labelled); test: ELISA, Ab 0.08 ug/well
T13 construct: also called peptide 11
T13 peptide: LQLAI[Cit]NDEELN
Description: as §2

[14] = target: T14, peptide no. 12 (human histone 2A) (human, also: biotin-labelled); test: ELISA, Ab 0.08 ug/well
T14 construct: also called peptide 12
T14 peptide: NKLLG[Cit]VTIAQG
Description: as §2

[15] = target: T4, CFC-1; test: ELISA, Ab 0.0032 ug/well
Description: as §2, with “fibrinogen and vimentin” for “histone 2A”
(§3) Biotin-labeled and citrulline-containing fibrinogen and vimentin peptides (Table 5) were also tested for reactivity with the therapeutic antibodies. Peptides were coated on 96-well NEUTRAVIDIN®-ELISA plates.

[16] = target: T15, msFibα XH (mouse, X at position 15 = citrulline; biotin-labelled); test: ELISA, Ab 0.0032 ug/well
T15 peptide: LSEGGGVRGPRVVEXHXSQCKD
Description: as §2, with “fibrinogen and vimentin” for “histone 2A”
as §3

[17] = target: T16, msFibα XG (mouse, X at position 8 = citrulline; biotin-labelled); test: ELISA, Ab 0.0032 ug/well
T16 peptide: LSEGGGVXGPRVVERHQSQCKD
Description: as §2, with “fibrinogen and vimentin” for “histone 2A”
as §3

[18] = target: T17, huFibα XH (human, X at position 15 = citrulline; biotin-labelled); test: ELISA, Ab 0.0032 ug/well
T17 peptide: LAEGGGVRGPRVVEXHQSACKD
Description: as §2, with “fibrinogen and vimentin” for “histone 2A”
as §3

[19] = target: T18, huFibα XG (human, X at position 8 = citrulline; biotin-labelled); test: ELISA, Ab 0.0032 ug/well
T18 peptide: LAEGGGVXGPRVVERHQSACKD
Description: as §2, with “fibrinogen and vimentin” for “histone 2A”
as §3

[20] = target: T19, msVim XS/XL (mouse, also: biotin-labelled); test: ELISA, Ab 0.0032 ug/well
T19 construct: also called mouse vimentin peptide
T19 peptide: YVT[Cit]SSAV[Cit]L[Cit]SSVP
Description: as §2, with “fibrinogen and vimentin” for “histone 2A”
as §3

[21] = target: T4, CFC-1; test: ELISA, Ab 0.00064 ug/well
Description: as §2, with “fibrinogen and vimentin” for “histone 2A”
as §3

[22] = target: T15, msFibα XH; test: ELISA, Ab 0.00064 ug/well
Description: as §2, with “fibrinogen and vimentin” for “histone 2A”
as §3

[23] = target: T16, msFibα XG; test: ELISA, Ab 0.00064 ug/well
Description: as §2, with “fibrinogen and vimentin” for “histone 2A”
as §3

[24] = target: T17, huFibα XH; test: ELISA, Ab 0.00064 ug/well
Description: as §2, with “fibrinogen and vimentin” for “histone 2A”
as §3

[25] = target: T18, huFibα XG; test: ELISA, Ab 0.00064 ug/well
Description: as §2, with “fibrinogen and vimentin” for “histone 2A”
as §3

[26] = target: T20, msFibβ XG (mouse, also: biotin-labelled); test: ELISA, Ab 0.00064 ug/well
T20 construct: also called mouse fibrinogen β peptide
T20 peptide: EPTDSLDA[Cit]GHRPVDRR
Description: as §2, with “fibrinogen and vimentin” for “histone 2A”
as §3

[27] = target: T19, msVim XS/XL; test: ELISA, Ab 0.00064 ug/well
Description: as §2, with “fibrinogen and vimentin” for “histone 2A”
as §3

B1: RhmAb2.102 (antibody, human IgG1, lambda)
heavy: not shown
light: QSVLTQPPSMSAAPGQKVTISCSGSSSNIGNNYVSWYQQVPGTAPKLLIYDDNKRPSGIPGRFSGSKSATSATLGITGLQAGDEADYYCGSWDDNLSVVLFGGGTKLTVLGQPKAAPSVTLFPPSSEELQANKATLVCLISDFYPGAVTVAWKADSSPVKAGVETTTPSKQSNNKYAASSYLSLTPEQWKSHRSYSCQVTHEGSTVEKTVAPTECS
notes: Human IgG1 lambda; also called Rhm2.102
**Q.** Which results are given for B1?
**A.** OD [1]: 0.054 OD450; OD [2]: 0.053 OD450; OD [3]: 0.093 OD450; OD [4]: 2.66 OD450; OD [5]: 2.04 OD450; OD [6]: 0.086 OD450; OD [7]: 0.091 OD450; OD [8]: 0.192 OD450; OD [9]: 0.066 OD450; OD [10]: 0.123 OD450; OD [11]: 0.06 OD450; OD [12]: 0.06 OD450; OD [13]: 0.064 OD450; OD [14]: 0.06 OD450; OD [15]: 0.506 OD450; OD [16]: 0.085 OD450; OD [17]: 0.125 OD450; OD [18]: 0.123 OD450; OD [19]: 0.125 OD450; OD [20]: 0.142 OD450; OD [21]: 0.345 OD450; OD [22]: 0.088 OD450; OD [23]: 0.116 OD450; OD [24]: 0.124 OD450; OD [25]: 0.125 OD450; OD [26]: 0.133 OD450; OD [27]: 0.154 OD450
